Results taken from EP1506972A1 (Genentech Inc., dated 2005).

Tests used:
Assay in all cases: competitive phage ELISA, soluble IGFBP-1 vs coated IGFBP-1
[1] = molecular target: T1, IGF-I S69A (G1S-A70V background) displayed on phage (human; bacteriophage M13)
T1 construct: not shown: Display carrier: M13 gene III protein fragment (residues 249-406) and its junction to Val70

[2] = molecular target: T2, des(1-2)-IGF-I displayed on phage (human; bacteriophage M13)
T2 construct: range 249-406; Lacks positions 1 and 2

[3] = molecular target: T3, IGF-I E46A (G1S-A70V background) displayed on phage (human; bacteriophage M13)
T3 construct: not shown: Display carrier: M13 gene III protein fragment (residues 249-406) and the junction to it
T3 chain: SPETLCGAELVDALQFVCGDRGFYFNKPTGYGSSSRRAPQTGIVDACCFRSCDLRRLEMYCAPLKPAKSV

[4] = molecular target: T4, IGF-I K27A (G1S-A70V background) displayed on phage (human; bacteriophage M13)
T4 construct: not shown: Display carrier: M13 gene III protein fragment (residues 249-406) and the junction to it
T4 chain: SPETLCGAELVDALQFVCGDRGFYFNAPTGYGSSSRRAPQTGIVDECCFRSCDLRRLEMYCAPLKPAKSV

[5] = molecular target: T5, IGF-I F16A (G1S-A70V background) displayed on phage (human; bacteriophage M13)
T5 construct: not shown: M13 gene III fragment (residues 249-406, display carrier) and the IGF-g3 junction
T5 chain: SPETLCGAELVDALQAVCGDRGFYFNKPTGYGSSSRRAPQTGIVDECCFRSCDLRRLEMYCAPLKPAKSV

[6] = molecular target: T6, IGF-I G30A (G1S-A70V background) displayed on phage (human; bacteriophage M13)
T6 construct: not shown: Display carrier: M13 gene III protein fragment (residues 249-406) and the junction to it
T6 chain: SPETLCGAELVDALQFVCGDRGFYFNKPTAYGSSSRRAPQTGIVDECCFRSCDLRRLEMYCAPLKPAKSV

[7] = molecular target: T7, IGF-I R50A (G1S-A70V background) displayed on phage (human; bacteriophage M13)
T7 construct: not shown: Display carrier: M13 gene III protein fragment (residues 249-406) and the junction to it
T7 chain: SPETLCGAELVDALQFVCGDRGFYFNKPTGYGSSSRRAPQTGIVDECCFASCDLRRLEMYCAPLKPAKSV

[8] = molecular target: T8, IGF-I V70A (single mutant of G1S-A70V) displayed on phage (human; bacteriophage M13)
T8 construct: not shown: Display carrier: M13 gene III protein fragment (residues 249-406) and its junction to residue 70

[9] = molecular target: IGF-I R37A (G1S-A70V background) displayed on phage (human; bacteriophage M13)
[10] = molecular target: IGF-I N26A (G1S-A70V background) displayed on phage (human; bacteriophage M13)
[11] = molecular target: IGF-I T41A (G1S-A70V background) displayed on phage (human; bacteriophage M13)
[12] = molecular target: IGF-I S34A (G1S-A70V background) displayed on phage (human; bacteriophage M13)
[13] = molecular target: IGF-I Y24A (G1S-A70V background) displayed on phage (human; bacteriophage M13)
[14] = molecular target: Ala(1-3)-IGF-I, triple alanine mutant of the first three N-terminal amino acids, displayed on phage (human; bacteriophage M13)
[15] = molecular target: IGF-I Q40A (G1S-A70V background) displayed on phage (human; bacteriophage M13)
[16] = molecular target: IGF-I S35A (G1S-A70V background) displayed on phage (human; bacteriophage M13)
[17] = molecular target: IGF-I D20A (G1S-A70V background) displayed on phage (human; bacteriophage M13)
[18] = molecular target: IGF-I G19A (G1S-A70V background) displayed on phage (human; bacteriophage M13)
[19] = molecular target: IGF-I F23A (G1S-A70V background) displayed on phage (human; bacteriophage M13)
[20] = molecular target: IGF-I R21A (G1S-A70V background) displayed on phage (human; bacteriophage M13)
[21] = molecular target: IGF-I V44A (G1S-A70V background) displayed on phage (human; bacteriophage M13)
[22] = molecular target: IGF-I I43A (G1S-A70V background) displayed on phage (human; bacteriophage M13)
[23] = molecular target: IGF-I F25A (G1S-A70V background) displayed on phage (human; bacteriophage M13)
[24] = molecular target: IGF-I G42A (G1S-A70V background) displayed on phage (human; bacteriophage M13)

B1: human IGFBP-1 (other, UniProt P08833 26-259, looked up)
chain: APWQCAPCSAEKLALCPPVSASCSEVTRSAGCGCCPMCALPLGAACGVATARCARGLSCRALPGEQQPLHALTRGQGACVQESDASAPHAAEAGSPESPESTEITEEELLDNFHLMAPSEEDHSILWDAISTYDGSKALHVTNIKKWKEPCRIELYRVVESLAKAQETSGEEISKFYLPNCNKNGFYHSRQCETSMDGEAGLCWCVYPWNGKRIPGSPEIRGDPNCQIYFNVQN
notes: Secreted recombinant protein
- relative IC50 (IC50mut/IC50 G1S-A70V) [1]: 1.6 fold
- relative IC50 (IC50mut/IC50 G1S-A70V) [2]: 0.6 fold
- relative IC50 (IC50mut/IC50 G1S-A70V) [3]: 1 fold
- relative IC50 (IC50mut/IC50 G1S-A70V) [4]: 1.6 fold
- relative IC50 (IC50mut/IC50 G1S-A70V) [5]: 7 fold
- relative IC50 (IC50mut/IC50 G1S-A70V) [6]: 0.9 fold
- relative IC50 (IC50mut/IC50 G1S-A70V) [7]: 2 fold
- relative IC50 (IC50mut/IC50 G1S-A70V) [8]: 2.3 fold
- IC50 [9]: 12.3 nM
- relative IC50 (IC50mut/IC50 G1S-A70V) [9]: 1.5 fold
- IC50 [10]: 9.1 nM
- relative IC50 (IC50mut/IC50 G1S-A70V) [10]: 1.1 fold
- IC50 [11]: 13.7 nM
- relative IC50 (IC50mut/IC50 G1S-A70V) [11]: 1.7 fold
- IC50 [12]: 9.5 nM
- relative IC50 (IC50mut/IC50 G1S-A70V) [12]: 1.2 fold
- IC50 [13]: 13.3 nM
- relative IC50 (IC50mut/IC50 G1S-A70V) [13]: 1.6 fold
- IC50 [14]: 90.4 nM
- relative IC50 (IC50mut/IC50 G1S-A70V) [14]: 11 fold
- IC50 [15]: 10.2 nM
- relative IC50 (IC50mut/IC50 G1S-A70V) [15]: 1.2 fold
- IC50 [16]: 11.7 nM
- relative IC50 (IC50mut/IC50 G1S-A70V) [16]: 1.4 fold
- IC50 [17]: 8.4 nM
- relative IC50 (IC50mut/IC50 G1S-A70V) [17]: 1 fold
- IC50 [18]: 11 nM
- relative IC50 (IC50mut/IC50 G1S-A70V) [18]: 1.3 fold
- IC50 [19]: 10.9 nM
- relative IC50 (IC50mut/IC50 G1S-A70V) [19]: 1.3 fold
- IC50 [20]: 7.1 nM
- relative IC50 (IC50mut/IC50 G1S-A70V) [20]: 0.9 fold
- IC50 [21]: 18.8 nM
- relative IC50 (IC50mut/IC50 G1S-A70V) [21]: 2.3 fold
- IC50 [22]: 31.3 nM
- relative IC50 (IC50mut/IC50 G1S-A70V) [22]: 3.8 fold
- IC50 [23]: 181 nM
- relative IC50 (IC50mut/IC50 G1S-A70V) [23]: 22.1 fold
- IC50 [24]: 15.7 nM
- relative IC50 (IC50mut/IC50 G1S-A70V) [24]: 1.9 fold
